Source: IntAct's records for PubMed 27832861

B1: Aquaporin-7 (Homo sapiens), O14520 (parent)
chain: MVQASGHRRSTRGSKMVSWSVIAKIQEILQRKMVREFLAEFMSTYVMMVFGLGSVAHMVLNKKYGSYLGVNLGFGFGVTMGVHVAGRISGAHMNAAVTFANCALGRVPWRKFPVYVLGQFLGSFLAAATIYSLFYTAILHFSGGQLMVTGPVATAGIFATYLPDHMTLWRGFLNEAWLTGMLQLCLFAITDQENNPALPGTEALVIGILVVIIGVSLGMNTGYAINPSRDLPPRIFTFIAGWGKQVFSNGENWWWVPVVAPLLGAYLGGIIYLVFIGSTIPREPLKLEDSVAYEDHGITVLPKMGSHEPTISPLTPVSVSPANRSSVHPAPPLHESMALEHF
partner: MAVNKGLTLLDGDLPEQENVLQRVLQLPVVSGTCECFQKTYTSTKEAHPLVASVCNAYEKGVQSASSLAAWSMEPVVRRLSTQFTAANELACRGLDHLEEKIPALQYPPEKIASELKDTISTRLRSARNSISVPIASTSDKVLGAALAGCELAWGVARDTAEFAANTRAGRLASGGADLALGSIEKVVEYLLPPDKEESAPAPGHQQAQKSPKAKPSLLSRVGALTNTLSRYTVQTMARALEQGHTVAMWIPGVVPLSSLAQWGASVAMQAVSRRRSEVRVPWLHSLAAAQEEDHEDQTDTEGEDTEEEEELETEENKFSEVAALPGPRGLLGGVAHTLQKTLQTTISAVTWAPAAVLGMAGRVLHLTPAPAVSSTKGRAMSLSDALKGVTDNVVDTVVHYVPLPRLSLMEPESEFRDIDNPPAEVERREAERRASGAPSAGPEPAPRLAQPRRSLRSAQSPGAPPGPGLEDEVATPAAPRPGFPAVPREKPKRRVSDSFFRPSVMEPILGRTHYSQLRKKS

Variants of: B1
Settings: with plin1_human PLIN1, O60240

| Variant | effect of a mutation on the interaction |
| --- | --- |
| MVQASGHRRAARGSKMVSWSVIAKIQEILQRKMVREFLAEFMSTYVMMVFGLGSVAHMVLNKKYGSYLGVNLGFGFGVTMGVHVAGRISGAHMNAAVTFANCALGRVPWRKFPVYVLGQFLGSFLAAATIYSLFYTAILHFSGGQLMVTGPVATAGIFATYLPDHMTLWRGFLNEAWLTGMLQLCLFAITDQENNPALPGTEALVIGILVVIIGVSLGMNTGYAINPSRDLPPRIFTFIAGWGKQVFSNGENWWWVPVVAPLLGAYLGGIIYLVFIGSTIPREPLKLEDSVAYEDHGITVLPKMGSHEPTISPLTPVSVSPANRSSVHPAPPLHESMALEHF [S10A;T11A] | disrupting interaction strength |
